Source: US9180187B2, “Medicament for treating and/or preventing cancer” (TORAY INDUSTRIES, INC., priority 2010, dated 2015)

Experiments:
[1] = test system: CAPRIN-1 protein; test: Flow cytometry: expression of CAPRIN-1 protein on the cell surface of MCF-7 treated with antitumor agents; format: cell-based, human; details: 1 μg antibody
Protocol: The cancer cell line MCF-7 was treated with each antitumor agent at a 50% inhibitory concentration which was calculated in (1) above, and the expression behavior of a CAPRIN-1 protein on the cell surface was examined.
The expression behavior of the CAPRIN-1 protein on the surface of the above-treated MCF-7 human breast cancer cell was examined. The cell was prepared to a concentration of 1×10^5 cells/ml, and then cultured on a 6-well plate under conditions of 37° C. and 5% CO2 for 1 day. Next, the cell was treated with antitumor agents at the 50% inhibitory concentration calculated in (1) above, or with PBS(−) as a control, and then cultured under conditions of 37° C. and 5% CO2 for 2 days. […] After washing with PBS, fluorescence intensity was measured using a FACS caliber (Becton, Dickinson and Company). […] As a result, no significant difference in fluorescence intensity was observed regardless of treatment with an antitumor agent. Specifically, the fluorescence intensity obtained in the case of adding the anti-CAPRIN-1 antibody to MCF-7 not treated with any antitumor agent indicated 32% higher enhancement when compared with that in the case of adding the control antibody. […] Here, the percentage of enhancement in fluorescence intensity was represented by the percentage of increase in mean fluorescence intensity (MFI level) in each cell and calculated by the following formula. […]

[2] = test system: MCF-7 human breast cancer cell line; test: In vivo combination therapy in tumor-bearing nude mice transplanted with MCF-7; details: experimental section 2 (anti-CAPRIN-1 antibody = #9, 5 mg/kg i.p.), day 26, mouse PBMC given to all groups
Protocol: IgG2b (R&D systems, catalog No. MAB11291)) were administered in combination, a group to which an antitumor agent and anti-CAPRIN-1 monoclonal antibody were administered in combination, and a group to which control (PBS(−) was administered. In addition, mouse PBMC was administered to all the administration groups. […] PBMC separated from Balb/c mouse spleen was intravenously administered to each mouse at 1×10^7 cells/0.2 mL (RPMI1640) on days 0, 8, and 15 after the start of the experiment. […] PBMC separated from Balb/c mouse spleen was intravenously administered to each mouse at 1×10^7 cells/0.2 mL (RPMI1640) on days 0, 8, and 15 after the start of the experiment. Paclitaxel was intraperitoneally administered to each of 5 tumor-bearing mice at 15 mg/kg/shot on days 0 and 3 after the start of the experiment. PBMC separated from Balb/c mouse spleen was intravenously administered to each mouse at 1×10^7 cells/0.2 mL (RPMI1640) on days 0, 8, and 15 after the start of the experiment. Docetaxel was intraperitoneally administered to each of 5 tumor-bearing mice at 10 mg/kg/shot on days 0 and 3 after the start of the experiment. PBMC separated from Balb/c mouse spleen was intravenously administered to each mouse at 1×10^7 cells/0.2 mL (RPMI1640) on days 0, 8, and 15 after the start of the experiment. […]

B1: monoclonal antibody #9: mouse anti-CAPRIN-1 monoclonal antibody; heavy chain variable region SEQ ID NO: 103, light chain variable region SEQ ID NO: 107 (antibody, listed as Mus musculus, V domains shown)
VH: PRASLGVSETLLCTSGFTFTDYYMSWVRQPPGKALEWLGFIRNKANGYTTEYSASVKGRFTISRDNSQSILYLQMNTLRAEDSATYYCARANWAFDYWGQGTTVTVSSK
VL: SGDRVSLSCRASQSISNYLHWYQQKSHESPRLLIKYASQSISGIPSRFSGSGSGTDFTLSINSVETEDFGMYFCQQSNSWPYTFGGGTKLEIKQ
- percentage of enhancement in fluorescence intensity versus control antibody ([1]; MCF-7 not treated with any antitumor agent): 32%
- percentage of enhancement in fluorescence intensity versus control antibody ([1]; MCF-7 treated with the antitumor agent at 50% inhibitory concentration for 2 days): 32%
- tumor volume relative to PBS(−) control group designated at 100% [2]: about 45%
